# Data published in the supplement of paper PMC10065799, “High-throughput profiling of sequence recognition by tyrosine kinases and SH2 domains using bacterial peptide display” (eLife, 2023).
# Legend:
# [1] = system: AncSZ; assay: phosphorylation enrichment, bacterial display (enrichment ratio); higher = better substrate or ligand; peptides without Tyr show the background
# [2] = target: EPHB1 (UniProt P54762); assay: as above
# [3] = target: EPHB2 (UniProt P29323); assay: as above
# [4] = target: FGFR1 (UniProt P11362); assay: as above
# [5] = target: FGFR3 (UniProt P22607); assay: as above
# [6] = system: Fer (mouse); assay: as above
# [7] = target: Fes (UniProt P07332); assay: as above
# Sequence of Fes (P07332 whole entry, looked up): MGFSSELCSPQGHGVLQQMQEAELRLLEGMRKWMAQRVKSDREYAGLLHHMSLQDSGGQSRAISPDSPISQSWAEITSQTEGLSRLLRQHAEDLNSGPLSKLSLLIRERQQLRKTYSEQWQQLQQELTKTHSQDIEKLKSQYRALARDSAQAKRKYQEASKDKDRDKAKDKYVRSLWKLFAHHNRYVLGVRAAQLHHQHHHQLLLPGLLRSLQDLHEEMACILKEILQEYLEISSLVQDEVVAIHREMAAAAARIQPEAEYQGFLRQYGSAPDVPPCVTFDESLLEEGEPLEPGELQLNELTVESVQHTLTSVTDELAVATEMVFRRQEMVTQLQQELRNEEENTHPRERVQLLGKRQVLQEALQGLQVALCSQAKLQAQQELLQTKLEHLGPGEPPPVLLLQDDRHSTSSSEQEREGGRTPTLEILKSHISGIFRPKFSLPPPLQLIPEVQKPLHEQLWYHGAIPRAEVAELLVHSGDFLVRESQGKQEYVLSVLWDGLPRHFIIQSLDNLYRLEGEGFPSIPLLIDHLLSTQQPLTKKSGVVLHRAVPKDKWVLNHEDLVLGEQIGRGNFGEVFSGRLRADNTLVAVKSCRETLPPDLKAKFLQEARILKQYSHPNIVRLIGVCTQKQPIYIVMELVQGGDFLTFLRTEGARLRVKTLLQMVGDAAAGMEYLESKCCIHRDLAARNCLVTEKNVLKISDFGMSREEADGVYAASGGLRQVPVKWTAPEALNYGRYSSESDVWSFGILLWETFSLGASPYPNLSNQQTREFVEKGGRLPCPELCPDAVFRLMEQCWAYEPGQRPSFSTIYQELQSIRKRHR
# [8] = target: Fyn (UniProt P06241); assay: as above
# Sequence of Fyn (P06241 whole entry, looked up): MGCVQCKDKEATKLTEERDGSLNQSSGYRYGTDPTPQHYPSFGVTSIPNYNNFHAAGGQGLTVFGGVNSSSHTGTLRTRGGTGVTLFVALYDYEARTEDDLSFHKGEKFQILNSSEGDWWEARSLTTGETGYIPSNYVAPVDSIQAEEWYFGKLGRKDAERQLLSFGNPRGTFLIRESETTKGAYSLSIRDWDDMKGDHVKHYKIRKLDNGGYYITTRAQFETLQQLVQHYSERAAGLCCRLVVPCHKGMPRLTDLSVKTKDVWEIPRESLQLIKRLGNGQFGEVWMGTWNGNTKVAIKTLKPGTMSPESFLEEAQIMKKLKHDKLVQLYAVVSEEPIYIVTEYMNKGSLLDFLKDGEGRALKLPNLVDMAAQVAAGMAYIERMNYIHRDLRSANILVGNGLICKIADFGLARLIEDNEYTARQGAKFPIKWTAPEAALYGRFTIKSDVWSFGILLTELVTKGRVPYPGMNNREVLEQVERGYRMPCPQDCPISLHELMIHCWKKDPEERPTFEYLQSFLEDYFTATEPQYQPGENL
# [9] = target: Hck (UniProt P08631); assay: as above
# Sequence of Hck (P08631 whole entry, looked up): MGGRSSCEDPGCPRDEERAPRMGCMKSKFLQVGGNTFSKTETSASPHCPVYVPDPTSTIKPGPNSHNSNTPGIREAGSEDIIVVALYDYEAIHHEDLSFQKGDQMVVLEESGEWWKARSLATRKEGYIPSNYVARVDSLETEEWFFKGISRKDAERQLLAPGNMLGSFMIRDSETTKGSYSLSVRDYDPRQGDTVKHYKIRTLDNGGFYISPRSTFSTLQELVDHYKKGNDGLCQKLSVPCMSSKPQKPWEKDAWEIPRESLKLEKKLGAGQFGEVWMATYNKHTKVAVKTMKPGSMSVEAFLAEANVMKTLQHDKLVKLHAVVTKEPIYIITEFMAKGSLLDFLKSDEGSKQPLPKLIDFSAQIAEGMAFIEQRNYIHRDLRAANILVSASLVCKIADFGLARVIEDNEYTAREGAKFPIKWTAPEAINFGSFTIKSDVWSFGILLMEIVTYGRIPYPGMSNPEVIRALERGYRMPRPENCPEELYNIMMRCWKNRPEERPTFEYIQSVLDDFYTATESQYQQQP
# [10] = target: Jak2 (UniProt O60674); assay: as above
# Sequence of Jak2 (O60674 whole entry, looked up): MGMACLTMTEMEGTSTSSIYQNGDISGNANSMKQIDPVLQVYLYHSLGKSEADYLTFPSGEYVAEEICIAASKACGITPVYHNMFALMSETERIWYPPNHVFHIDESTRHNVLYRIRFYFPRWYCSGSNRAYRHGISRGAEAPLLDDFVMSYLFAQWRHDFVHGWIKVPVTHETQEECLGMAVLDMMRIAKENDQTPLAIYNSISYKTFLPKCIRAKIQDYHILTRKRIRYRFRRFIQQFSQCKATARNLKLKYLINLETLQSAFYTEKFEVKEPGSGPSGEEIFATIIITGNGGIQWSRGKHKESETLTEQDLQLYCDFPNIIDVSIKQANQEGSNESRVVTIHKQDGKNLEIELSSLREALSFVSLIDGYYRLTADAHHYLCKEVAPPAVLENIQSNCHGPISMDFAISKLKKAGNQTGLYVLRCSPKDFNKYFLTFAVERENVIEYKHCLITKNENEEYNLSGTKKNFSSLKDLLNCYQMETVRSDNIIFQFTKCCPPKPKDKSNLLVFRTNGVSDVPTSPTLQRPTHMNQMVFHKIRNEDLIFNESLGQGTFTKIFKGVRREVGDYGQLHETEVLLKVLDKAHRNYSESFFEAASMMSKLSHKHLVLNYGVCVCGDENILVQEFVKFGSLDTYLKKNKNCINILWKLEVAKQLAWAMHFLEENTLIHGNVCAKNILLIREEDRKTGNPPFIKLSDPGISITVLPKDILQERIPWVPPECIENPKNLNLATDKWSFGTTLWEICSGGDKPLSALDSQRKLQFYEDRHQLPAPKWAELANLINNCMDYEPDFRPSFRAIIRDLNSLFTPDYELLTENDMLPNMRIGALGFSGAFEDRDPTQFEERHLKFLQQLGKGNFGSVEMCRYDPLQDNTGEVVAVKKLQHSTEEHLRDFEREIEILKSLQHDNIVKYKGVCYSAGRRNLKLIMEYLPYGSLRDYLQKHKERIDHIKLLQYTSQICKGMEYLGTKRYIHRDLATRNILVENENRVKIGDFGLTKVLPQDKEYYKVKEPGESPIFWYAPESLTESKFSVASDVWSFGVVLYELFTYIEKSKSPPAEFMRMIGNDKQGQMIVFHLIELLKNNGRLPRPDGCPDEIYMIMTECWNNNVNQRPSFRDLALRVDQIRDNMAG
# [11] = target: MERTK (UniProt Q12866); assay: as above
# [12] = system: c-Abl (mouse); assay: as above
# [13] = system: c-Src; assay: as above
# [14] = target: Grb2 SH2 (UniProt P62993); assay: SH2 binding enrichment of the phosphorylated peptide, bacterial display (enrichment ratio); higher = better substrate or ligand; peptides without Tyr show the background
# [15] = target: SHP2-C SH2; assay: as above
# [16] = target: c-Src SH2; assay: as above
# 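Throughout, for SH2 binding enrichment of the phosphorylated peptide, bacterial display: peptide library displayed on the E. coli surface as eCPX fusions, selected cells deep-sequenced, score is each peptide's frequency after selection divided by its frequency in the input.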
# 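Throughout, for phosphorylation enrichment, bacterial display: 11-residue human phosphosite peptides and single-mutation variants displayed on the E. coli surface, counted by deep sequencing, each peptide's frequency after selection divided by its frequency in the unselected input library; frequency after pTyr selection over input frequency; kinase dosed for 20-30% of maximal phosphorylation in three min.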
# Sequence of EPHB2 (P29323 whole entry, looked up): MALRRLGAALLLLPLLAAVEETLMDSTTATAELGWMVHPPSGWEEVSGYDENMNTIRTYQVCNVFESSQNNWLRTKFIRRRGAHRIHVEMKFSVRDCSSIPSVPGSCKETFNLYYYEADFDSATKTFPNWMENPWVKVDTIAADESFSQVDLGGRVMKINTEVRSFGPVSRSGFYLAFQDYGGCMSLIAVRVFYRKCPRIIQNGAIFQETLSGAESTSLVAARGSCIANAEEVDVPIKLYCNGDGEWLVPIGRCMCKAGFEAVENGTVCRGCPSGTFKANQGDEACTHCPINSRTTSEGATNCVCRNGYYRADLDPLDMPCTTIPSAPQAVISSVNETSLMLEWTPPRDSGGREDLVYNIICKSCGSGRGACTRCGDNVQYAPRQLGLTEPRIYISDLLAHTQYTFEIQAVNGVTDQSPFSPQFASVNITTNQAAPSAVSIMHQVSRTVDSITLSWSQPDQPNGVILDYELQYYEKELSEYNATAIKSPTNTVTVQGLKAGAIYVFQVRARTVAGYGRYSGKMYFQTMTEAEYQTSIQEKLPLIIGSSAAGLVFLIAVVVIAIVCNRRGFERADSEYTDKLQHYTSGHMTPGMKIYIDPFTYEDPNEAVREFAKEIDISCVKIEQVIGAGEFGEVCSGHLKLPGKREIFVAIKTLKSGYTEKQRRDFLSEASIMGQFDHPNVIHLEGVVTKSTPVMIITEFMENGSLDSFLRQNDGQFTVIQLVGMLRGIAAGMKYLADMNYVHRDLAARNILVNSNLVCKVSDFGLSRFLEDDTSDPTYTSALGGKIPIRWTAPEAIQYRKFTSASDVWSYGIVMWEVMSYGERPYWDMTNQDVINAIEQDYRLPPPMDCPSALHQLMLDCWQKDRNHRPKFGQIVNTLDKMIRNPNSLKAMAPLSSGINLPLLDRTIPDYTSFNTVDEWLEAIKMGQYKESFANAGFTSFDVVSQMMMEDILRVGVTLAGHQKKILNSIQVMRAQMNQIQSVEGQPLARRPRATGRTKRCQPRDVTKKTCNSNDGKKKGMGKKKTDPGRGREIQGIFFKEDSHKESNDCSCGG
# Sequence of EPHB1 (P54762 whole entry, looked up): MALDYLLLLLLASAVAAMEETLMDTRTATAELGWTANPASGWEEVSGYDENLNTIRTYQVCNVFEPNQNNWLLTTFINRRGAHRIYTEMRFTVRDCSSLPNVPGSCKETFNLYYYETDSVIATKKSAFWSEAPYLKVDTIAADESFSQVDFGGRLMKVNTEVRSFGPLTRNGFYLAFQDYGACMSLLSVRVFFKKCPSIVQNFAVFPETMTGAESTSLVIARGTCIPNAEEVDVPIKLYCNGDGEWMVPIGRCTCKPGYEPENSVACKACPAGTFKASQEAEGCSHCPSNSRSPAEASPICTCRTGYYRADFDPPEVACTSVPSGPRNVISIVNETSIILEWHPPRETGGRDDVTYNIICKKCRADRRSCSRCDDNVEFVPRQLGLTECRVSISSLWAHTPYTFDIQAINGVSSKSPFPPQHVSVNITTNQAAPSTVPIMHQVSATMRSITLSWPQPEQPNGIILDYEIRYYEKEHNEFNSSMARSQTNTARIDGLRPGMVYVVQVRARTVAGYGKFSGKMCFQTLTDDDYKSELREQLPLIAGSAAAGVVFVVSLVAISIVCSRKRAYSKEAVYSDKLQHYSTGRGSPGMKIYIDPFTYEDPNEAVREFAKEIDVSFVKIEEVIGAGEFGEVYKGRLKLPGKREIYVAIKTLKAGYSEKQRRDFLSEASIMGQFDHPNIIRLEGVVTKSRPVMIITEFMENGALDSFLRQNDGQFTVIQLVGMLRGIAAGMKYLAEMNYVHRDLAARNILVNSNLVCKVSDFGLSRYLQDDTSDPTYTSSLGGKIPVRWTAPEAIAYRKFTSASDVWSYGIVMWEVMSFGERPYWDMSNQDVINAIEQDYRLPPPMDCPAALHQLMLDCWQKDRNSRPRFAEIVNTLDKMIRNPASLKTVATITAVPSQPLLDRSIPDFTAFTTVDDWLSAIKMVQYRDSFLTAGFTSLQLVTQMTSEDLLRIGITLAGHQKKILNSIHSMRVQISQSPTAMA
Sequence,phosphorylation enrichment [1],phosphorylation enrichment [2],phosphorylation enrichment [3],phosphorylation enrichment [4],phosphorylation enrichment [5],phosphorylation enrichment [6],phosphorylation enrichment [7],phosphorylation enrichment [8],phosphorylation enrichment [9],phosphorylation enrichment [10],phosphorylation enrichment [11],phosphorylation enrichment [12],phosphorylation enrichment [13],SH2 binding enrichment [14],SH2 binding enrichment [15],SH2 binding enrichment [16]
QDGFSYPSRQM [LDLR_Y847_YF],0.378,0.218,0.479,0.453,0.325,0.409,0.53,0.434,0.522,0.454,0.415,0.621,0.398,1.48,0.725,0.66
QDRTYYERVRT [SPEN_Y633_S635R],0.947,0.732,0.767,0.749,0.697,2.62,0.728,1.35,5.76,0.556,0.629,0.639,1.79,0.792,2.04,2.47
QEIATYPRLLE [KRT14_Y415_R416P],1.08,0.581,1.04,0.77,0.869,0.792,1.62,0.611,0.845,1.43,0.515,1.07,0.595,0.575,0.705,0.443
QEKKGYFEDRC [GLUL_Y336_R341C],1.06,0.522,0.631,0.804,0.716,0.519,1.29,0.609,0.655,1,0.799,0.843,0.613,1.5,0.948,0.589
QERPEYWDQET [HLA-A_Y83_G80R],1.81,0.693,0.702,0.727,0.915,1.14,1.58,0.646,0.696,1.56,0.566,1.14,0.554,0.985,0.827,0.626
QGGRCYMMIVD [GAA_Y438_R437C],2.31,1.35,1.29,0.815,1.83,0.948,2.69,0.87,0.769,2.11,0.928,1.81,1.03,0.696,0.674,0.957
QLDQRYLLVPE [DDX49_Y223],1.12,0.613,0.807,0.843,0.799,0.374,0.978,0.574,0.664,0.748,0.572,0.665,0.701,0.754,0.715,0.763
QLQVFYATLDQ [MIPEP_Y579],1.74,1.09,1.99,1.12,1.34,2.77,2.19,1.8,3.38,2.12,7.63,2.27,3.92,1.26,5.62,3.26
QMQNPYSRHSS [MUC13_Y501],0.521,0.363,0.416,0.572,0.495,0.648,0.584,0.418,0.544,0.468,0.346,0.57,0.472,0.974,0.758,0.558
QMVGMYASSSM [AVPR2_Y124_Y128S],0.647,0.73,0.403,0.477,0.435,0.472,0.645,0.438,0.766,0.635,0.504,0.807,0.567,0.869,0.756,0.685
QNVADYMRFLM [RPL5_Y207_YF],1.73,1.79,1.92,0.871,1.09,0.818,1.97,1.2,1.09,2.91,0.814,1.42,1.64,0.894,0.842,0.62
QPTPGYEVGQR [TSC2_Y1788_E1783Q],0.637,0.454,0.474,0.609,0.621,0.21,0.759,0.541,0.535,0.444,0.255,0.443,0.329,1.07,0.666,0.572
QQLQGYIPSNY [FRK_Y99],0.623,0.473,0.437,0.314,0.49,0.329,0.671,0.356,0.633,0.647,0.475,0.47,0.382,0.944,0.477,0.333
QRALLYEDTLF [UNC13D_Y56_A59T_YF],1.58,15.4,13.9,0.599,0.853,17.9,4.74,1.49,1.65,1.68,9.24,1.13,1.95,0.739,0.82,0.547
QRIFQYIRSRF [DYRK1B_Y273_Q275R_YF],1.07,0.817,0.795,0.75,0.695,0.827,1.26,0.837,0.83,1.24,0.975,0.988,1.36,0.765,0.467,0.521
QRRLVYFERGA [RYR1_Y245_G248R_YF],0.847,0.665,0.79,0.918,0.742,0.586,0.827,0.584,0.507,0.811,0.484,0.805,0.569,0.942,0.578,0.65
QSRSPYSSRHS [CDK13_Y415_R410Q],0.85,0.471,0.443,0.558,0.541,0.543,0.808,0.715,0.593,0.823,0.452,0.597,0.705,1.2,0.852,0.549

Sequence,phosphorylation enrichment [1],phosphorylation enrichment [2],phosphorylation enrichment [3],phosphorylation enrichment [4],phosphorylation enrichment [5],phosphorylation enrichment [6],phosphorylation enrichment [7],phosphorylation enrichment [8],phosphorylation enrichment [9],phosphorylation enrichment [10],phosphorylation enrichment [11],phosphorylation enrichment [12],phosphorylation enrichment [13],SH2 binding enrichment [14],SH2 binding enrichment [15],SH2 binding enrichment [16]
QTEAQYRFIFM [PTPN11_Y511_YF],1.18,0.774,0.467,0.893,1.02,0.785,1.92,0.612,0.688,1.78,0.58,1.82,0.702,0.627,0.777,0.355
QTLTDYDTRFY [CSNK2A3_Y131_I133T],1.01,0.861,0.667,0.612,0.69,0.749,1.25,0.556,0.619,1.06,0.483,0.692,0.428,0.815,0.757,0.678
QTPVLYAMLFH [MPZ_Y220_D224Y_YF],0.771,6.9,4.17,2.41,2.13,6.25,1.23,4.56,5.5,1.39,7.73,1.61,4.04,1.03,0.778,0.601
QTPVLYTMLDH [MPZ_Y220_A221T],0.896,4.45,1.78,2.85,3.51,10.7,1.14,2.02,5.48,0.907,13.4,0.674,3,0.866,11.8,3.44
QYNPEYVQQAS [LRRC7_Y1058_H1054Y],1.16,0.687,0.802,0.854,1.05,0.939,1.28,0.707,0.831,0.995,0.635,1,0.508,1.06,1.47,0.431
RAHARYCADAR [ACOT4_Y52],0.614,0.444,0.676,0.406,0.633,0.333,1.08,0.392,0.54,0.533,0.444,0.689,0.419,0.92,0.746,0.656
RAIELCNDKEK [OTULIN_Y244_Y244C],0.852,0.406,0.76,0.354,0.425,0.471,1.38,0.509,0.381,0.752,0.395,0.682,0.481,1,0.762,0.753
RALRHYFKLNI [ETV6_Y401_YF],0.725,0.342,0.358,0.485,0.55,0.369,0.874,0.373,0.377,0.798,0.4,0.594,0.394,2.81,2.6,1.66
RCKSHYAAFSV [C1QTNF1_Y145],1.41,1.43,0.903,1.1,0.983,1.46,1.35,1.4,1.42,0.737,2.89,4.74,1.07,1.45,1.73,1.34
REETTYLPLTS [ICAM3_Y527_S525T],1.39,0.656,0.548,0.74,0.644,0.608,1.05,0.864,1.7,1.03,0.901,0.781,1.61,0.957,0.746,0.36
RESVSYLFSHV [PRPS1_Y311_G306R],1,0.588,0.901,0.532,0.814,0.479,1.12,1.41,0.549,1.15,0.492,1.06,0.742,0.907,2.06,0.654
RFQKLYLDRNL [IGFALS_Y248_L244F],0.726,0.529,0.509,0.636,0.655,0.224,0.761,0.492,0.569,0.538,0.342,0.486,0.332,0.793,0.771,0.463
RHFTGCRIELQ [INSR_Y818_Y818C],0.779,0.545,0.778,0.488,0.672,0.503,1.49,0.403,0.613,0.884,0.421,0.665,0.508,0.835,0.771,0.714
RHPFFYAPELL [ALB_Y174_YF],1.61,1.18,1.04,1.25,0.969,1.06,1.99,1.32,0.733,1.97,0.839,1.12,1.05,1.34,1.14,0.988
RHPYFFAPELL [ALB_Y174_Y174F],1.22,0.723,0.613,16.3,13.9,0.541,1.33,0.601,0.598,1.39,0.557,1.19,1.29,1.22,1.01,0.954
RICRRYCQVLN [IQCF1_Y144_R141C],1.03,0.676,0.624,0.857,0.66,0.654,1.18,0.748,0.7,0.817,0.758,0.701,0.738,0.537,0.76,0.329
